{"source": "the nanobody polyreactivity screen of Harvey et al. (2022)"}
{"assay": "yeast display, Sf9 membrane polyspecificity reagent, FACS + sequencing; frameworks hold sequencing errors", "summary_of_the_method": "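Galactose induction of a Saccharomyces cerevisiae BJ5465 synthetic nanobody display library ran 36–48 hours. The cells were then stained for 1 hour at 4 °C with 10% biotinylated, detergent-solubilized Sf9 membrane reagent, pulled down on streptavidin microbeads and FACS-sorted into low and high (top ~1%) gates on expression and reagent-binding fluorescence. Labels for polyreactivity follow the gate of origin.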"}
{"sequence": "QVQLVESGGGLVQAGGSLRLSCAASGSIFDLIAMGWYRQAPGKERELVAAISSGGGTYYADSVKGRFTISRDNAKNTVYLQMNSLKPEDTAVYYCNRVTRWTYNYWGQGTQVTVSS", "polyreactivity (PSR sort gate)": "high polyreactivity"}
{"sequence": "QVQLVESGGGLVQAGGSLRLSCAASGSIFDLYAMGWYRQAPGKERELVAAINSGGSTYADSVKGRFTISRDNSKNTVYLQMNSLKPEDTAVYYCNADYRHSLGSGYDYWGQVTQVTVSS", "polyreactivity (PSR sort gate)": "low polyreactivity"}
{"sequence": "QVQLVESGGGLVQAGGSLRLSCAASGSIFDLYAMGWYRQAPGKERELVDAISSGATTNYADSVKGRFTISRDNAKNTVYLQMNSLKPEDTAVYYCAKYYRISSLYVIVSAYDYWGQGTQVTVSS", "polyreactivity (PSR sort gate)": "low polyreactivity"}
{"sequence": "QVQLVESGGGLVQAGGSLRLSCAASGSIFDNYAMGWYRQAPGKEREFVAGISWSGGSTRYADSVKGRFTISRDNAKNTVYLQMNSLKPEDTAVYYCNTGYGLVDFLYGYYYWGQGTQVTVSS", "polyreactivity (PSR sort gate)": "low polyreactivity"}
{"sequence": "QVQLVESGGGLVQAGGSLRLSCAASGSIFDPNAMGWYRQAPGKERELLADIDSSDGSTYYADSVKGRFTISRDNAKNTVYLQMNSLKPEDTAVYYCNARYGGWVWSTYDHWGQGTQVTVSS", "polyreactivity (PSR sort gate)": "low polyreactivity"}
{"sequence": "QVQLVESGGGLVQAGGSLRLSCAASGSIFDPNAMGWYRQAPGKERELVANITNGGRTNYADSVKGRFTISRDNAKNTVYLQMNSLKPEDTAVYYCAKDSPFTSVTVLAPIIYDSWGQGTQVTVSS", "polyreactivity (PSR sort gate)": "low polyreactivity"}
{"sequence": "QVQLVESGGGLVQAGGSLRLSCAASGSIFDPYAMGWSRQAPGKEREFVAAISYSAGSTYYADSVKGRFTISRDNAKNTVYLQMNSLKPEATAVYYCAARYTHTSPSIRSWAYYYWGQGTQVTVSS", "polyreactivity (PSR sort gate)": "high polyreactivity"}
{"sequence": "QVQLVESGGGLVQAGGSLRLSCAASGSIFDPYAMGWYRQAPGKERELVAGISFSGGRTYYADSVKGRFTISRDNAKNTVYLQMNSLKPEDTAVYYCNKLLTQGAYPYYFWGQGTQVTVSS", "polyreactivity (PSR sort gate)": "high polyreactivity"}
{"sequence": "QVQLVESGGGLVQAGGSLRLSCAASGSIFDPYAMGWYRQAPGKERELVAVINDGGRTTYADSVKGRFTISRDNAKNTVYLQMNSLKPEDTAVYYCAATYYFSRWDLFGYWGQGTQVTVSS", "polyreactivity (PSR sort gate)": "low polyreactivity"}
{"sequence": "QVQLVESGGGLVQAGGSLRLSCAASGSIFDRNAMGWYRQAPGKERELVAAITSGGSTYYADSVKGRFTISRDNAKNTVYLQMNSLKAEDTAVYYCNADADPPVPLYYWGQGTQVTVSS", "polyreactivity (PSR sort gate)": "low polyreactivity"}
{"sequence": "QVQLVESGGGLVQAGGSLRLSCAASGSIFDRNAMGWYRQAPGKERELVAAITSGGSTYYADSVKGRFTISRDNAKNTVYLQMNSLKPEDTGVYYCNADADPPVPLYYWGQGTQVTVSS", "polyreactivity (PSR sort gate)": "low polyreactivity"}
{"sequence": "QVQLVESGGGLVQAGGSLRLSCAASGSIFDRNAMGWYRQAPGKERELVATITWSGVSTYYADSVKGRFTISRDNAKNTVYLQMNSLKPEDTAVYYCNADYSYRHWYDPGQYGQAMGYWGLGTQVTVSS", "polyreactivity (PSR sort gate)": "low polyreactivity"}
{"sequence": "QVQLVESGGGLVQAGGSLRLSCAASGSIFDRYALGWYRQAPGKERELVAAISTGGSTNYADSVKGRFTISRDNAKNTVYLQMNSLKPEDTAVYYCAAERYWVFHGTISYKYDYWGQGSQVTVSS", "polyreactivity (PSR sort gate)": "low polyreactivity"}
{"sequence": "QVQLVESGGGLVQAGGSLRLSCAASGSIFDSYVMGCYRQAPGTERELVAAITYSGGSTYADSVKGRFTISRDNAKNTVYLQMNSLKPEDTAVYYCAADYYRGRYSYRYDYWGQGTQVTVSS", "polyreactivity (PSR sort gate)": "low polyreactivity"}
{"sequence": "QVQLVESGGGLVQAGGSLRLSCAASGSIFDSYVMGWYRQAPGKERELVAAITYSGGSTYADSVKGRFTISRDNAKNTVYLQMNSLKPEDTAVYYCAAASYFYLYLLEDYWGQGTQVTVSS", "polyreactivity (PSR sort gate)": "low polyreactivity"}
{"sequence": "QVQLVESGGGLVQAGGSLRLSCAASGSIFDVNAMGWYRQAPGKERELVAAISDSGGSTYYADSVKGRFTISRDNAKNTVYLQMNSLKPEDTAVYYCNADWYWYNYYDFDYWGQGTQVTVSS", "polyreactivity (PSR sort gate)": "low polyreactivity"}
{"sequence": "QVQLVESGGGLVQAGGSLRLSCAASGSIFDVNAMGWYRQAPGKERELVAAISDSGGSTYYADSVKGRYTISRDNAKNTVYLQMNSLKPEDTAVYYCNADWSWYNYYDFDYWGQGTQVTVSS", "polyreactivity (PSR sort gate)": "low polyreactivity"}
{"sequence": "QVQLVESGGGLVQAGGSLRLSCAASGSIFDVNAMGWYRQAPGKERELVAAISDSTTSTYYADSVKGRFTISRDNAKNTVYLQMNSLKPEDTAVYYCNTPGLPIDSEYDYWGQGTQVTVSS", "polyreactivity (PSR sort gate)": "low polyreactivity"}
{"sequence": "QVQLVESGGGLVQAGGSLRLSCAASGSIFDVNAMGWYRQAPGKERELVAAISQRGTRTYYADSVKGRFTISRDNAKNTVYLQMNSLKAEDTAVYYCNRGGWRQYDSWGQGTQVTVSS", "polyreactivity (PSR sort gate)": "high polyreactivity"}
{"sequence": "QVQLVESGGGLVQAGGSLRLSCAASGSIFDVNPMGWYRQAPGKERELVAAISQRGTRTYYADSVKGRFTISRDNAKNTVYLQMNSLKPEDTAVYSCNRGGWRQYDSWGQGTQVTVSS", "polyreactivity (PSR sort gate)": "high polyreactivity"}
{"sequence": "QVQLVESGGGLVQAGGSLRLSCAASGSIFDVNTMGWYRQAPGKERELVAAISRGGSTNYADSVKGRFTISRDNAKNTVYLQMNSLKPEDTAVYYCNKRYQNQYDYWGQGTQVTVSS", "polyreactivity (PSR sort gate)": "low polyreactivity"}
{"sequence": "QVQLVESGGGLVQAGGSLRLSCAASGSIFDVNTMGWYRQAPGKERELVAAITNGDRTNYADSVKGRFTISRDNAKNTVYLQMNSLKPEDTAVYYCNTDQGTTSDYGYWGQGTQVTVSS", "polyreactivity (PSR sort gate)": "low polyreactivity"}
{"sequence": "QVQLVESGGGLVQAGGSLRLSCAASGSIFDVYAMGWYRQAPGKERELVAAITFSGGSTYYADSVKWRFTISRDNAKNTVYLQMNSLNPEDTAVYYCSVSRSYLYPVYGYYTWLGDYWGQGTQVTVSS", "polyreactivity (PSR sort gate)": "low polyreactivity"}
{"sequence": "QVQLVESGGGLVQAGGSLRLSCAASGSIFDVYAMGWYRQAPGQERELVAAISRGDSTNYADSVKGRFTISRDNAKNTVYLQMNSLKPEDTAVYYCAADCYYWGSGWRYDSWGQGTQVTVSS", "polyreactivity (PSR sort gate)": "low polyreactivity"}
{"sequence": "QVQLVESGGGLVQAGGSLRLSCAASGSIFDVYTMGWSRQAPGKERELVAAISKRSGRTYYADSVKGRFTISRDNAKNTVYLQMNSLKPEDTAVYYCAARGYPTTAVTYDYWGQGTQVTVSS", "polyreactivity (PSR sort gate)": "low polyreactivity"}
{"sequence": "QVQLVESGGGLVQAGGSLRLSCAASGSIFDVYTMGWYRPAPGKERELVAAISWSGGSTFYADSVKGRFTISRDNAKNTVYLQMNSLKPEDTAVYYCAAELSLGNYWYDFWGQGTQVTVSS", "polyreactivity (PSR sort gate)": "high polyreactivity"}
{"sequence": "QVQLVESGGGLVQAGGSLRLSCAASGSIFDVYVMGWYRQAPGKERELVAAITSTGSTNYADSVKGRFTISRDNAKNTVYLQMNSLKPEDTAVYYCATDGVYKHIQVLYDYWGQGTQVTVSS", "polyreactivity (PSR sort gate)": "low polyreactivity"}
{"sequence": "QVQLVESGGGLVQAGGSLRLSCAASGSIFDWNGMGWYRQAPGKERELVAAITWRGGRTYYADSVKGRFTISRDNAKNTVYLQMNSLKPEDTAVYYCAATRFFYSRYNYWGQGTQVTVSS", "polyreactivity (PSR sort gate)": "high polyreactivity"}
{"sequence": "QVQLVESGGGLVQAGGSLRLSCAASGSIFDWYVMGWYRQAPGKERELVAAITSGGSTNYADSVKGRFTISRDNAKNTVYLQMNSLKPEDTAVYFCAADTVSFSILYDYWGQGTQVTVSS", "polyreactivity (PSR sort gate)": "low polyreactivity"}
{"sequence": "QVQLVESGGGLVQAGGSLRLSCAASGSIFDYNAMGWNRQAPGKDRELVAAISSGGSTYYADSVKGRFTISRDNAKNTVYLQMNSLKPEDTAVYYCAVKFWMVIQFDYWGQGTQVTVSS", "polyreactivity (PSR sort gate)": "low polyreactivity"}
{"sequence": "QVQLVESGGGLVQAGGSLRLSCAASGSIFDYNAMGWYRQAPGKEREFVAAISSSAGSTYYADSVKGRFTISRDNAKNTVYLEMNSLKPEDTAVYYCAADWYDFSFPYYEYEYWGQGTQVTVSS", "polyreactivity (PSR sort gate)": "low polyreactivity"}
{"sequence": "QVQLVESGGGLVQAGGSLRLSCAASGSIFDYNAMGWYRQAPGKEREFVAAISSSAGSTYYADSVKGRFTISRDNAKNTVYLQMNSLKPEDTAVYYCAARYQSPFRTYRFGMDYWGQGTQVTVSS", "polyreactivity (PSR sort gate)": "low polyreactivity"}
{"sequence": "QVQLVESGGGLVQAGGSLRLSCAASGSIFDYNAMGWYRQAPGKERELVAAISRSGGSTYYADSVKGRFTISRDNAKNTVYLQMNSLKPEDTAVYYCAALPSRPRGYDYWGHGTQVTVSS", "polyreactivity (PSR sort gate)": "high polyreactivity"}
{"sequence": "QVQLVESGGGLVQAGGSLRLSCAASGSIFDYNAMGWYRQAPGKERELVASISGDSGSTYYADSVKGRFTISRDNAKNTDYLQMNSLKPEDTAVYYCAAPYVSWDYRYYYWGQGTQVTLSS", "polyreactivity (PSR sort gate)": "low polyreactivity"}
{"sequence": "QVQLVESGGGLVQAGGSLRLSCAASGSIFDYNTMGWYRQAPGKERELVAAISSGGSTYYADSVKGRFTISRDNAKNTVYLQMNSLKPEDTAVYYCAARRAGWWGFYYWGQATQVTVSS", "polyreactivity (PSR sort gate)": "high polyreactivity"}
{"sequence": "QVQLVESGGGLVQAGGSLRLSCAASGSIFDYTAMGWYRQAPGKERELVASIRWSGGRTYYADSVKGRFTISRDNAKNTVYLQMNSLKPEDTAVYYCNRKPQEYVLQGSSNGYDYWGQGTQVTVSS", "polyreactivity (PSR sort gate)": "low polyreactivity"}
{"sequence": "QVQLVESGGGLVQAGGSLRLSCAASGSIFDYYALGWYRQAPGKERELVATITSGVSTYYADSVKGRFTISRDNAKNTVYLQMNSLKPEDTAVYYCARDYAKSQDLYKYDYWGQGTQVTLSS", "polyreactivity (PSR sort gate)": "low polyreactivity"}
{"sequence": "QVQLVESGGGLVQAGGSLRLSCAASGSIFDYYAMGWYRPAPVKERELVAAISDSGSTYYADSVKGRFTISRDNAKNTVYLQMNSLKPEDTAVYYCAAVLWSPYLSEPLETYEYWGQGTQVTVSS", "polyreactivity (PSR sort gate)": "low polyreactivity"}
{"sequence": "QVQLVESGGGLVQAGGSLRLSCAASGSIFDYYAMGWYRQAPGKERELVAAISRSGTTNYADSVKGRFTISRDNAKNTVYFQMNSLKPEDTAVYYCNARTRGYRYTSALYYWGQGTQVTVSS", "polyreactivity (PSR sort gate)": "high polyreactivity"}
{"sequence": "QVQLVESGGGLVQAGGSLRLSCAASGSIFDYYAMGWYRQAPGKERELVAAISTSTSSTYYADSVKGRFTISRDNAKNTVYLQMNSLKPEDTAVYYCAAEGESQPESPGYDYWGQGTQVTVSS", "polyreactivity (PSR sort gate)": "low polyreactivity"}
{"sequence": "QVQLVESGGGLVQAGGSLRLSCAASGSIFDYYTMGWYRQAPGKERELVASITRDGTSTYYADSVKGRFTISRDNAKNTVYLQMNSLKPEDTAVYYCAAERYGFTYSFYYWGQGTQVTVSS", "polyreactivity (PSR sort gate)": "low polyreactivity"}
{"sequence": "QVQLVESGGGLVQAGGSLRLSCAASGSIFDYYVMGWYRQSPGKERELVAAISLSGGSTYYADSVKGRFTISRDNAKNTVYLQMNSLKPEDTAVYYCNADSQWYDYDYWGQGTQVTVSS", "polyreactivity (PSR sort gate)": "high polyreactivity"}
{"sequence": "QVQLVESGGGLVQAGGSLRLSCAASGSIFEGNAMGWYRQAPGKERELVAAISTTGGITYYADSVKGRFTISRDNAKNTVFLQMNSLKPEDTAVYYCAADPSQPRIDSSNYDYWGQGTQVTLSS", "polyreactivity (PSR sort gate)": "low polyreactivity"}
